T1: APBA1_2, Q02410
T1 sequence (Q02410 742-832, limits assumed, looked up): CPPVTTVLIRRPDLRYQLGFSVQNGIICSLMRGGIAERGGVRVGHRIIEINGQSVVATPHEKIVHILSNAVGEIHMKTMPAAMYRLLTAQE

T2: HTRA3, P83110
T2 sequence (P83110 354-453, limits assumed, looked up): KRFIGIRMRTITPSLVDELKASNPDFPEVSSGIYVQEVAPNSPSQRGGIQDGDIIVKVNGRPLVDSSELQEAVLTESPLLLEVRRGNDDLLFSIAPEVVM

T3: GRIP1_3, Q9Y3R0
T3 sequence (Q9Y3R0 247-346, limits assumed, looked up): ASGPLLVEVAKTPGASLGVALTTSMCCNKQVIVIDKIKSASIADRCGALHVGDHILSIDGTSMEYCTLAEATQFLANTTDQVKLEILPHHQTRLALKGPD

T4: TX1BP3, O14907
T4 sequence (O14907 10-122, limits assumed, looked up): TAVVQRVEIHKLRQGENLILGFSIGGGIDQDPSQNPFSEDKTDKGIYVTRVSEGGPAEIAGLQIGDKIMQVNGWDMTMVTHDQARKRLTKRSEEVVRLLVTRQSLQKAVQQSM

T5: SYNJ2BP, P57105
T5 sequence (P57105 8-110, limits assumed, looked up): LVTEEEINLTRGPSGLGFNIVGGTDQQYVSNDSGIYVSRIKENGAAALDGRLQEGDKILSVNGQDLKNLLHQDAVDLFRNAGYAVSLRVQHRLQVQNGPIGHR

T6: LNX2_3, Q8N448
T6 sequence (Q8N448 463-564, limits assumed, looked up): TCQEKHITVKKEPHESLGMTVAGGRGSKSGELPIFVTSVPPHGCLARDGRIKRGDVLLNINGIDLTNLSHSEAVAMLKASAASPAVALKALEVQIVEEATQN

T7: SHANK1, Q9Y566
T7 sequence (Q9Y566 658-767, limits assumed, looked up): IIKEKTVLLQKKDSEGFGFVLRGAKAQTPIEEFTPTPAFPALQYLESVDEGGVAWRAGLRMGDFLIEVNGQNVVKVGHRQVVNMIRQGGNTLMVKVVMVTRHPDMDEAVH

T8: MPDZ_10, O75970
T8 sequence (O75970 1624-1722, limits assumed, looked up): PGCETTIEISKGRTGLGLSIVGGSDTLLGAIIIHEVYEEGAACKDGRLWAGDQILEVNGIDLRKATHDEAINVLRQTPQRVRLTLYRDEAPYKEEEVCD

T9: SNTB1, Q13884
T9 sequence (Q13884 107-205, limits assumed, looked up): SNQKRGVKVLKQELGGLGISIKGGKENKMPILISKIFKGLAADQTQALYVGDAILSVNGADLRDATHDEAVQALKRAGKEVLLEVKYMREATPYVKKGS

T10: PDZD7_3, Q9H5P4
T10 sequence (Q9H5P4 857-944, limits assumed, looked up): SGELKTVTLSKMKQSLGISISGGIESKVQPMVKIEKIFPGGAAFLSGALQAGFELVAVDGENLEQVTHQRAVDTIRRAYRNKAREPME

T11: APBA1_1, Q02410
T11 sequence (Q02410 651-752, limits assumed, looked up): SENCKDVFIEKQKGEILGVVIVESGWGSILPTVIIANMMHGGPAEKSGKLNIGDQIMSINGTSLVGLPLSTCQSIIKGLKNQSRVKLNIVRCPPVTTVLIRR

T12: GRIP1_7, Q9Y3R0
T12 sequence (Q9Y3R0 999-1096, limits assumed, looked up): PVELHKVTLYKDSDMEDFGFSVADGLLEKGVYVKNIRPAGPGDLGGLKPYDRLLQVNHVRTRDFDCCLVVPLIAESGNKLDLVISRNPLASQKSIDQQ

T13: MPP7, Q5T2T1
T13 sequence (Q5T2T1 134-230, limits assumed, looked up): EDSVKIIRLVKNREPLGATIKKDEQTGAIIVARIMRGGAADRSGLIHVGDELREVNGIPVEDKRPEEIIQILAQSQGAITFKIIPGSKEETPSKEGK

B1: DUSP10, Q9Y6W6 (peptide)
chain: PKLMGVETVV
B2: ITK, Q08881 (peptide)
chain: QLAEIAESGL

molecular target: PARD3_3, Q8TEW0; assay: holdup assay; design: key: below the threshold = too weak to quantify, mostly under pKd 3.1 to 4; settings: plain residues with an end cap or a label only (N-terminal biotin on a linker: ado-ado)
Sequence (Q8TEW0 582-685): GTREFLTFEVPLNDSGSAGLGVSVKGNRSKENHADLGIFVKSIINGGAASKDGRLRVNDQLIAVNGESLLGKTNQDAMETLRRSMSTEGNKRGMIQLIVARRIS

Binder	pKd
B1	3.75
B2	below the threshold

molecular target: Inadl_1, Q8NI35; assay: holdup assay; design: key: below the threshold = too weak to quantify, mostly under pKd 3.1 to 4; settings: plain residues with an end cap or a label only (N-terminal biotin on a linker: ado-ado)
Sequence (Q8NI35 113-229): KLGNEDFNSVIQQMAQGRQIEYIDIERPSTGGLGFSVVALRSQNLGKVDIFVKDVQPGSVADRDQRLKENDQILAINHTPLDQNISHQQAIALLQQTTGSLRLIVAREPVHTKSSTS

Binder	pKd
B1	below the threshold
B2	below the threshold

molecular target: T1, APBA1_2, Q02410; assay: holdup assay; design: key: below the threshold = too weak to quantify, mostly under pKd 3.1 to 4; settings: plain residues with an end cap or a label only (N-terminal biotin on a linker: ado-ado)

Binder	pKd
B1	4.08
B2	below the threshold

molecular target: GIPC2, Q8TF65; assay: holdup assay; design: key: below the threshold = too weak to quantify, mostly under pKd 3.1 to 4; settings: plain residues with an end cap or a label only (N-terminal biotin on a linker: ado-ado)
Sequence (Q8TF65 112-203): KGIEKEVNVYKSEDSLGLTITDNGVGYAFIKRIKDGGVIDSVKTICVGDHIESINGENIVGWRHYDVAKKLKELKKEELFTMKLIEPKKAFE

Binder	pKd
B1	below the threshold
B2	3.63

molecular target: DLG2_2, Q15700; assay: holdup assay; design: key: below the threshold = too weak to quantify, mostly under pKd 3.1 to 4; settings: plain residues with an end cap or a label only (N-terminal biotin on a linker: ado-ado)
Sequence (Q15700 189-283): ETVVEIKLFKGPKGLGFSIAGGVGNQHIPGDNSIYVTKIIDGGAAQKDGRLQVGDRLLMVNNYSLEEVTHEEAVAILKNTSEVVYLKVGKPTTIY

Binder	pKd
B1	5.36
B2	3.57

molecular target: T2, HTRA3, P83110; assay: holdup assay; design: key: below the threshold = too weak to quantify, mostly under pKd 3.1 to 4; settings: plain residues with an end cap or a label only (N-terminal biotin on a linker: ado-ado)

Binder	pKd
B1	below the threshold
B2	below the threshold

molecular target: T3, GRIP1_3, Q9Y3R0; assay: holdup assay; design: key: below the threshold = too weak to quantify, mostly under pKd 3.1 to 4; settings: plain residues with an end cap or a label only (N-terminal biotin on a linker: ado-ado)

Binder	pKd
B1	below the threshold
B2	below the threshold

molecular target: FRMPD2_1, Q68DX3; assay: holdup assay; design: key: below the threshold = too weak to quantify, mostly under pKd 3.1 to 4; settings: plain residues with an end cap or a label only (N-terminal biotin on a linker: ado-ado)
Sequence (Q68DX3 770-861): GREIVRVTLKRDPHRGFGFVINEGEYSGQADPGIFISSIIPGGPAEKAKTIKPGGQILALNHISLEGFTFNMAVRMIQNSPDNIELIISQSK

Binder	pKd
B1	below the threshold
B2	below the threshold

molecular target: T4, TX1BP3, O14907; assay: holdup assay; design: key: below the threshold = too weak to quantify, mostly under pKd 3.1 to 4; settings: plain residues with an end cap or a label only (N-terminal biotin on a linker: ado-ado)

Binder	pKd
B1	4.15
B2	below the threshold

molecular target: T5, SYNJ2BP, P57105; assay: holdup assay; design: key: below the threshold = too weak to quantify, mostly under pKd 3.1 to 4; settings: plain residues with an end cap or a label only (N-terminal biotin on a linker: ado-ado)

Binder	pKd
B1	4.69
B2	3.84

molecular target: T6, LNX2_3, Q8N448; assay: holdup assay; design: key: below the threshold = too weak to quantify, mostly under pKd 3.1 to 4; settings: plain residues with an end cap or a label only (N-terminal biotin on a linker: ado-ado)

Binder	pKd
B1	below the threshold
B2	below the threshold

molecular target: T7, SHANK1, Q9Y566; assay: holdup assay; design: key: below the threshold = too weak to quantify, mostly under pKd 3.1 to 4; settings: plain residues with an end cap or a label only (N-terminal biotin on a linker: ado-ado)

Binder	pKd
B1	below the threshold
B2	3.76

molecular target: T8, MPDZ_10, O75970; assay: holdup assay; design: key: below the threshold = too weak to quantify, mostly under pKd 3.1 to 4; settings: plain residues with an end cap or a label only (N-terminal biotin on a linker: ado-ado)

Binder	pKd
B1	below the threshold
B2	below the threshold

molecular target: T9, SNTB1, Q13884; assay: holdup assay; design: key: below the threshold = too weak to quantify, mostly under pKd 3.1 to 4; settings: plain residues with an end cap or a label only (N-terminal biotin on a linker: ado-ado)

Binder	pKd
B1	5.17
B2	3.67

molecular target: T10, PDZD7_3, Q9H5P4; assay: holdup assay; design: key: below the threshold = too weak to quantify, mostly under pKd 3.1 to 4; settings: plain residues with an end cap or a label only (N-terminal biotin on a linker: ado-ado)

Binder	pKd
B1	5.19
B2	below the threshold

molecular target: NHERF4_4, Q86UT5; assay: holdup assay; design: key: below the threshold = too weak to quantify, mostly under pKd 3.1 to 4; settings: plain residues with an end cap or a label only (N-terminal biotin on a linker: ado-ado)
Sequence (Q86UT5 464-550): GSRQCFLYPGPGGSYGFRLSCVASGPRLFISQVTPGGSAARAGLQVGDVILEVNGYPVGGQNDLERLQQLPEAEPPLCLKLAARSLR

Binder	pKd
B1	below the threshold
B2	below the threshold

molecular target: T11, APBA1_1, Q02410; assay: holdup assay; design: key: below the threshold = too weak to quantify, mostly under pKd 3.1 to 4; settings: plain residues with an end cap or a label only (N-terminal biotin on a linker: ado-ado)

Binder	pKd
B1	below the threshold
B2	3.52

molecular target: MAST1, Q9Y2H9; assay: holdup assay; design: key: below the threshold = too weak to quantify, mostly under pKd 3.1 to 4; settings: plain residues with an end cap or a label only (N-terminal biotin on a linker: ado-ado)
Sequence (Q9Y2H9 962-1065): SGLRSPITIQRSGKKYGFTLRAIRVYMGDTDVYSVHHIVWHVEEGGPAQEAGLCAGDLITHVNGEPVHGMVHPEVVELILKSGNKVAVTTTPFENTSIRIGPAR

Binder	pKd
B1	4.58
B2	4.54

molecular target: GRID2IP_2, A4D2P6; assay: holdup assay; design: key: below the threshold = too weak to quantify, mostly under pKd 3.1 to 4; settings: plain residues with an end cap or a label only (N-terminal biotin on a linker: ado-ado)
Sequence (A4D2P6 272-370): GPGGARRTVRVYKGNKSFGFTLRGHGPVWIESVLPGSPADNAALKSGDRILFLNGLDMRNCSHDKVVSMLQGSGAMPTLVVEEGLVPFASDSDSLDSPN

Binder	pKd
B1	below the threshold
B2	3.61

molecular target: T12, GRIP1_7, Q9Y3R0; assay: holdup assay; design: key: below the threshold = too weak to quantify, mostly under pKd 3.1 to 4; settings: plain residues with an end cap or a label only (N-terminal biotin on a linker: ado-ado)

Binder	pKd
B1	below the threshold
B2	below the threshold

molecular target: GRID2IP_1, A4D2P6; assay: holdup assay; design: key: below the threshold = too weak to quantify, mostly under pKd 3.1 to 4; settings: plain residues with an end cap or a label only (N-terminal biotin on a linker: ado-ado)
Sequence (A4D2P6 1-87): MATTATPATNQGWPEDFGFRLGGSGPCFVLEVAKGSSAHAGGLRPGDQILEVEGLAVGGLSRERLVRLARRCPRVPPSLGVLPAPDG

Binder	pKd
B1	below the threshold
B2	below the threshold

molecular target: T13, MPP7, Q5T2T1; assay: holdup assay; design: key: below the threshold = too weak to quantify, mostly under pKd 3.1 to 4; settings: plain residues with an end cap or a label only (N-terminal biotin on a linker: ado-ado)

Binder	pKd
B1	below the threshold
B2	below the threshold

molecular target: MAGI3_2, Q5TCQ9; assay: holdup assay; design: key: below the threshold = too weak to quantify, mostly under pKd 3.1 to 4; settings: plain residues with an end cap or a label only (N-terminal biotin on a linker: ado-ado)
Sequence (Q5TCQ9 398-503): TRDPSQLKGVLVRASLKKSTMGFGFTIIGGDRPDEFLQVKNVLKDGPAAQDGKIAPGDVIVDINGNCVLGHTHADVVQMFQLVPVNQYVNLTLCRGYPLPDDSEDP

Binder	pKd
B1	5.32
B2	below the threshold

Reference: publication PMC9482650, “Quantitative fragmentomics allow affinity mapping of interactomes” (Nature Communications, 2022)
